Assay results published in the supplement of paper PMC9732359.
± gives the uncertainty stated by the source.

Test: protein stability index of a GFP-peptide fusion (yeast GPS) (PSI 1-4); higher = more stable; sorted into four equal gates, so the index is relative within each strain
Method in brief: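 Tiled 17-residue yeast protein peptides were fused downstream of GFP in a plasmid that also expresses Cherry, and the pooled library was carried in yeast. Mid-log cultures in leucine-free medium were sorted into four equal gates by GFP/Cherry fluorescence ratio, and plasmids from each gate were PCR-amplified and Illumina-sequenced, with reads assigned to strains by barcodes. The protein stability index for each peptide was each gate's read frequency times its gate number, summed.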

Row | Sequence | protein stability index (doa10∆) | protein stability index (pdr5∆) | protein stability index (san1∆) | protein stability index (ubr1∆)
1 | VGSLVVKSSMGPAFRLY [RPL1A] | 3.07 ± 0.059 | 2.95 ± 0.055 | 3.14 ± 0.051 | 2.73 ± 0.055
2 | ALAGSEINWRHASFLCS [FAS1] | 1.77 ± 0.071 | 1.6 ± 0.057 | 1.43 ± 0.092 | 1.84 ± 0.049
3 | EQYTKKINSWDQVLVKG [YJL041W/NSP1] | 1.72 ± 0.095 | 2.29 ± 0.1 |  | 1.48 ± 0.087
4 | VVRAASSLASQDVDFYK [RRP6] | 2.13 ± 0.066 | 2.04 ± 0.057 | 3.06 ± 0.16 | 1.48 ± 0.089
5 | FNNEAPPQTRKFQPPPG [SMB1] | 2.86 ± 0.1 | 3.11 ± 0.1 | 3.01 ± 0.075 | 3.13 ± 0.085
6 | FGANQATNTFGSNQQSS [YGR119C/NUP57] | 2.91 ± 0.12 | 3.26 ± 0.076 | 3.2 ± 0.12 | 2.92 ± 0.073
7 | YVKSLHKQISAEDLTIA [SIN4] | 2.82 ± 0.14 | 3.19 ± 0.11 | 2.8 ± 0.2 | 2.77 ± 0.085
8 | TMMANFEEWIKMATDNK [BRN1] | 3.19 ± 0.12 | 3.16 ± 0.11 | 3.08 ± 0.1 | 3.35 ± 0.1
9 | ILNDSLIYHLKDCAEVD [IRR1] | 2.05 ± 0.056 | 2.28 ± 0.06 | 2.02 ± 0.09 | 1.71 ± 0.046
10 | INDNNTRPYILERARDV [YCG1] | 3.6 ± 0.23 |  |  | 
11 | PVEKVQRIAKNDPEYMD [DLS1] | 2.75 ± 0.27 | 3.29 ± 0.14 | 3.17 ± 0.12 | 3.31 ± 0.087
12 | TSPGYSPGSPAYSPKQD [RPO21] | 2.31 ± 0.087 | 2.1 ± 0.063 | 2.39 ± 0.11 | 1.77 ± 0.05
13 | GMCQLYFWHKIWRKVPG [SNU114] | 1.97 ± 0.064 | 1.8 ± 0.057 | 2.12 ± 0.091 | 2.14 ± 0.048
14 | VLYHTSGAITFVNETPR [PRP8] | 2.06 ± 0.06 | 2.24 ± 0.075 | 2.43 ± 0.068 | 1.53 ± 0.04
15 | QKSGRPVKSIRARLKGK [RPO21] | 2.17 ± 0.12 | 2.23 ± 0.12 | 2.34 ± 0.2 | 1.77 ± 0.24
16 | IANDNVITPHFITNVQS [SWI1] | 2.14 ± 0.082 | 2.68 ± 0.076 | 2.41 ± 0.092 | 2.2 ± 0.053
17 | KRLADGLSVTQKVFVRS [DIS3] | 1.85 ± 0.077 | 2.38 ± 0.076 | 1.93 ± 0.12 | 1.93 ± 0.06
18 | LFKPLNKTLTLDLKECY [ARP7] | 2.4 ± 0.067 | 2.14 ± 0.068 | 1.89 ± 0.15 | 2.27 ± 0.12
19 | DDDVTPSTKVASSAVMN [YLR335W/NUP2] | 3.5 ± 0.14 | 3.19 ± 0.083 | 3.3 ± 0.065 | 3.26 ± 0.062
20 | KGTVFQFEIPISDDDDS [POP4] | 3.3 ± 0.17 | 2.47 ± 0.15 | 2.29 ± 0.15 | 3.13 ± 0.042
21 | MEGQKLDDPVLNAIVSK [YJR042W/NUP85] | 3.27 ± 0.19 | 3.2 ± 0.2 |  | 3.21 ± 0.17
22 | AGDLRALDTVTNVLNFI [FAS1] | 3.04 ± 0.1 | 3.22 ± 0.14 | 2.95 ± 0.11 | 2.54 ± 0.24
23 | IDDLIHEIITVGPHFKQ [RPL7A] | 1.87 ± 0.1 | 2.32 ± 0.11 |  | 1.56 ± 0.064
24 | IKFKKCDGDTVWDKFAV [SSN2] | 3 ± 0.052 | 3.03 ± 0.048 | 2.87 ± 0.046 | 2.75 ± 0.046
25 | KNAANTEGHKGHEELKR [ISW2] | 3.43 ± 0.086 | 3.16 ± 0.081 | 3.2 ± 0.098 | 3.35 ± 0.061

Row | Sequence | protein stability index (doa10∆) | protein stability index (pdr5∆) | protein stability index (san1∆) | protein stability index (ubr1∆)
26 | DSIPLRITNSFYSTNSQ [RPN9] | 2.56 ± 0.14 | 2.65 ± 0.13 | 2.58 ± 0.18 | 2.9 ± 0.21
27 | DPDTKKVKESPANDQAS [YIL149C/MLP2] | 3.04 ± 0.084 | 3.21 ± 0.078 | 3.06 ± 0.049 | 3.12 ± 0.093
28 | LEIVYGYALRDVQARRQ [RPP1] | 2.43 ± 0.15 | 1.92 ± 0.11 | 2.36 ± 0.13 | 2.3 ± 0.26
29 | LKIFQEQSLEVFIFPTS [SRB8] | 2.12 ± 0.083 | 1.96 ± 0.054 | 2.29 ± 0.056 | 2.28 ± 0.041
30 | VSYKDYSIFLENENILI [SMC1] | 2.62 ± 0.13 | 2.81 ± 0.1 |  | 2.59 ± 0.086
31 | KDWELEARFWHLVELLL [YDL116W/NUP84] | 2.26 ± 0.1 | 2.15 ± 0.086 | 1.92 ± 0.15 | 2.28 ± 0.062
32 | MSPLECRNILGVTSLIK [RPP1] | 2.23 ± 0.052 | 1.96 ± 0.054 | 1.84 ± 0.079 | 2.08 ± 0.044
33 | RLFNNVKIHSQESLLSR [SRP72] | 2.61 ± 0.076 | 2 ± 0.06 | 2.44 ± 0.085 | 2.18 ± 0.044
34 | IFEAISLSDELNLDEIV [YJL039C/NUP192] | 2.76 ± 0.067 | 2.73 ± 0.064 | 2.72 ± 0.042 | 2.87 ± 0.054
35 | LLARVIQMNNSLQNNLQ [SNF11] | 3.01 ± 0.11 | 2.46 ± 0.097 | 2.36 ± 0.084 | 2.06 ± 0.086
36 | LALSGTSASNTSMNGVH [SNF5] | 2.48 ± 0.073 | 2.73 ± 0.16 |  | 3.05 ± 0.14
37 | RKHPGGRGMAGGQHHHR [RPL28] | 2.94 ± 0.14 | 2.6 ± 0.26 | 3.03 ± 0.1 | 3.18 ± 0.16
38 | MPVAPTMEVKSFPILDQ [YMR129W/POM152] | 1.36 ± 0.1 | 1.29 ± 0.11 | 1.2 ± 0.2 | 1.22 ± 0.093
39 | TLDNIDDINKAKAVWEN [ARP9] | 3.14 ± 0.058 | 3.18 ± 0.062 | 3.29 ± 0.051 | 3.27 ± 0.058
40 | GLCMLGTGKPEAIHDMF [RPN2] | 2.75 ± 0.15 | 3.46 ± 0.29 | 3.19 ± 0.064 | 3.18 ± 0.075
41 | VEKTLLSDVAFYVQDVY [RPO31] | 2.11 ± 0.22 | 3.14 ± 0.23 |  | 2.49 ± 0.15
42 | QPEDLEPAEANEENDLD [RPB2] | 3.35 ± 0.17 | 3.15 ± 0.19 | 3.21 ± 0.13 | 3.42 ± 0.16
43 | SCGYPAAKTRSYNWGAK [RPL37A] | 2.21 ± 0.29 | 3.34 ± 0.12 | 3.1 ± 0.085 | 3.31 ± 0.12
44 | DVEIGRMPIMLRSNKCI [RET1] | 1.23 ± 0.15 | 1.27 ± 0.11 | 1.14 ± 0.27 | 1.07 ± 0.11
45 | IHQILLPTNPTLDKPNA [CSE2] | 2.56 ± 0.039 | 2.58 ± 0.041 | 2.37 ± 0.044 | 2.42 ± 0.034
46 | VRDKLDEYQAAVEQRKK [DPB4] | 3.42 ± 0.097 | 3.37 ± 0.066 | 3.31 ± 0.055 | 3.33 ± 0.073
47 | TKLHSGDYGEEEDADQE [SRB8] | 2.5 ± 0.16 | 2.58 ± 0.12 |  | 2.38 ± 0.2
48 | TGLVSIRGKILTGTVVS [RPS11A] | 2.45 ± 0.052 | 2.75 ± 0.053 | 2.58 ± 0.053 | 2.89 ± 0.038
49 | IIQNAQRDAVTLFCCLL [RPO21] | 2.88 ± 0.053 | 2.54 ± 0.055 | 2.53 ± 0.051 | 2.44 ± 0.046
